# B1: antibody 992 (antibody, human IgG1, kappa, V domains shown)
# VH: EVQLQQPGSELVRPGASVKLSCKASGYTFTSYWMHWVKQRPGQGLEWIGNIYPGSRSTNYDEKFKSKATLTVDTSSSTAYMQLSSLTSEDSAVYYCTRNGDYYVSSGDAMDYWGQGTSVTVSS
# VL: DIQMTQTTSSLSASLGDRVTISCRTSQDIGNYLNWYQQKPDGTVKLLIYYTSRLHSGVPSRFSGSGSGTDFSLTINNVEQEDVATYFCQHYNTVPPTFGGGTKLEIKR
# notes: Chimeric mouse/human IgG1 kappa; the VL entry includes the human kappa constant region
# B2: antibody 1344 (antibody, human IgG1, kappa, V domains shown)
# VH: QVQLKESGPGLVAPSQSLSITCTVSGFSLTIYGVHWVRQPPGKGLEWLGVIWAGGNTNYNSALMSRLSISKDNSKSQVFLKMNSLQTDDTAMYFCARGYGYNLDYWGQGTTLTVSS
# VL: DIQMTQTTSSLSASLGDRVTISCSASQGISNYLNWYQQKPDGTVKLLIYYTSSLHSGVPSRFSGSGSGTDYSLTISNLEPEDIATYYCQQYSKLPYTFGGGTKLEIKR
# notes: Chimeric IgG1 kappa
# B3: antibody 1320 (antibody, human IgG1, kappa, V domains shown)
# VH: QVQLQQPGAELVKPGASMKLSCKASGYTFTNYWMHWVKQRPGQGLEWIGEINPSNGRTNYNEKFKSKATLTVDKSSSTAYMQLSSLTSEDSGVYYCAKGGNYYDYDWDYWGQGTTLTVSS
# VL: DIQMTQTTSSLSASLGDRVTISCSASQDISNYLNWYQQKPDGTVKLLIYHTSTLHSGVPSRFSGSGSGTDYSLTISNLEPEDIATYYCQQYSKLPWTFGGGTKLEIKR
# notes: Chimeric IgG1 kappa
# B4: antibody 1347 (antibody, human IgG1, kappa, V domains shown)
# VH: QVQLKESGPGLVAPSQSLSITCTVSGFSLTGHGVNWVRQPPGKGLEWLGMIWGDGSTDYNSTLKSRLSISKDNSKSQVFLKMNSLQTDDTARYYCARGYGYLYYFDYWGQGTTLTVSS
# VL: ENVLTQSPAIMSASPGEKVTMTCRASSSVSSSYLHWYQQKSGASPKLWIYSTSNLASGVPARFSGSGSGTSYSLTVNSVETEDAATYYCHQYSGFPFTFGSGTKLELKR
# notes: Chimeric IgG1 kappa
# B5: antibody 1024 (antibody, human IgG1, kappa, V domains shown)
# VH: QVQLQQPGAELVEPGGSVKLSCKASGYTFTSHWMHWVKQRPGQGLEWIGEINPSSGRNNYNEKFKSKATLTVDKSSSTAYMQFSSLTSEDSAVYYCVRYYGYDEAMDYWGQGTSVTVSS
# VL: DIVMTQAAFSNPVTLGTSASISCRSSKSLLHSNGITYLYWYLQKPGQSPQLLIYQMSNLASGVPDRFSSSGSGTDFTLRISRVEAEDVGVYYCAQNLELPYTFGGGTKLEIKR
# notes: Chimeric IgG1 kappa
# B6: antibody 1030 (antibody, human IgG1, kappa, V domains shown)
# VH: EVQLVESGGGLVKPGGSLKLSCAASGFTFSSYALSWVRQTPERRLEWVASISGVGSTYFPDSVKGRFTMSRDNARNILYLQMSSLRSEDTAMYYCARGSDGYFYAMDYWGQGTSVTVSS
# VL: DIVLTQSPASLAVSLGQRATISCRASKSVSTSGYSFMHWYQLKPGQPPKLLIYLASNLESGVPARFSGSGSGTDFTLNIHPVEEEDAATYYCQHSREFPLTFGGGTKLEIKR
# notes: Chimeric IgG1 kappa
# B7: antibody 1208 (antibody, human IgG1, kappa, V domains shown)
# VH: EVQLVESGGGLVKPGGSLKLSCAASGFAFSSYDMSWVRQTPEKRLEWVAYIGSGDDNTHYPDSVKGRFTISRHNAKNTLYLQMSSLKSEDTAMYYCARQKYGNYGDTMDYWGQGTSVTVSS
# VL: DVVMTQTPLSLPVSLGDQASISCRSSQSLVHSNGNTYLHWYLQKPGQSPKLLIYKVSNRFSGVPDRFSGSGSGTDFTLKISRVEAEDLGVYFCSQSTHVPTFGGGTKLEIKR
# notes: Chimeric IgG1 kappa; also called clone 1208
# Columns and labels:
# [1] = molecular target: T1, recombinant human EGFR extracellular domain with 6xHis (human, UniProt P00533 25-645); experiment: SPR competition, competitor 1042
# T1 construct: In-house produced; also called 6xHis EGFR ECD; soluble human EGFR ECD; not shown: 6xHis tag
# Description: (§1) SPR analysis was performed on a Biacore 3000 machine containing four flow cells. A CM5 Biacore chip was conjugated with 10,000 Resonance units (Ru) polyclonal anti-His antibody to flow cells 1-4 according to the manufacturer's instructions. […] Immediately after antigen injection the maximal binding of the Anti-EGFR mAb without competition was established in each flow cell during a reference run. Briefly 5 μl antibody at a concentration of 40 μg/ml was injected over all flow cells with captured EGFR followed by stripping of the antibody/antigen complex with a low pH acid wash (10 sec. contact time with 10 mM Glycine-HCl, pH2). After the determination of Anti-EGFR antibody maximal binding to each flow cell, a competition run was performed during the same Biacore cycle. Flow cells were first saturated with EGFR ECD antigen followed by injection of different reference antibodies or Anti-EGFR antibodies into separate flow cells using the same antigen saturating conditions as outlined above. This step was immediately followed by a second injection of Anti-EGFR antibody over the flow cell saturated with EGFR antigen and competition antibody to minimize the dissociation of either antigen or blocking antibody. Then the antibody/antigen complexes were stripped off with a low pH acid wash (10 sec. contact time with 10 mM Glycine-HCl, pH 2) and the whole cycle beginning with the reference run was repeated with a new Anti-EGFR antibody. The degree of inhibition of tested Anti-EGFR antibodies were determined by comparing the Ru max value of the individual Anti-EGFR antibody before and after competition by introduction of report points recorded two seconds before and after injection of each sample.
# [2] = molecular target: T2, wild type full length EGFR purified from A431 cells (human, UniProt P00533 25-1210); experiment: competition ELISA, competitor Ab-5; design: concentration or dose not given beside the values
# T2 construct: mature; Bought; coated on ELISA wells; also called full length EGFR receptor antigen; Sigma E3641
# Description: (§2) The ELISA was adapted from the descriptions published in Ditzel et al, 1995, The Journal of Immunology, Vol 154, Issue 2 893-906.
# (§3) An epitope blocking ELISA was performed by diluting full length EGFR receptor antigen to 0.5 μg/ml in PBS; and coating 50 μl/ELISA well overnight at 4° C. […] Finally wells were washed four times with PBS-T and plates were developed by adding 50 μl/well TMB and read at 620 nm every 5-15-30 min. The degree of inhibition was calculated from the formula: % inhibition=(1−(OD competition/OD no competition (PBS)))×100.
# [3] = molecular target: T2, wild type full length EGFR purified …; experiment: competition ELISA, competitor Ab-1; design: concentration or dose not given beside the values
# Description: as §2, §3
# [4] = molecular target: T1, recombinant human EGFR extracellular …; experiment: SPR (BIAcore 2000); IgG captured on anti-human Fc, soluble monovalent EGFR ECD injected
# Description: Kinetic analysis of the full length IgG antibodies of the invention was performed on a BIAcore 2000, employing an assay as described in (Canziani, Klakamp, et al. 2004, Anal. Biochem, 325:301-307) allowing measurement of monovalent affinities of whole IgG molecules against soluble antigen. […] The chip surface was regenerated in between cycles by stripping the captured antibody/antigen complexes with a 10 second injection of 100 mM H₃PO₄. […] The association rate constant (ka) and dissociation constant (kd) were evaluated globally from the generated sensograms with the BIA evaluation software 4.1 provided by the manufacturer.
# [5] = molecular target: T1, recombinant human EGFR extracellular …; experiment: SPR competition, competitor 1449
# Description: as §1
# [6] = molecular target: T2, wild type full length EGFR purified …; experiment: competition ELISA, competitor Ab-2; design: concentration or dose not given beside the values
# Description: as §2, §3
# [7] = molecular target: T2, wild type full length EGFR purified …; experiment: competition ELISA, competitor ICR10; design: concentration or dose not given beside the values
# Description: as §2, §3
# [8] = molecular target: T2, wild type full length EGFR purified …; experiment: competition ELISA, competitor Ab-3; design: concentration or dose not given beside the values
# Description: as §2, §3
# [9] = molecular target: T2, wild type full length EGFR purified …; experiment: competition ELISA, competitor Ab-11; design: concentration or dose not given beside the values
# Description: as §2, §3
# [10] = molecular target: T1, recombinant human EGFR extracellular …; experiment: SPR competition, competitor 1308
# Description: as §1
# [11] = molecular target: T3, EGFRvIII (deletion mutant EGFR) (human, UniProt P00533 25-645, limits assumed); experiment: EGFRvIII ELISA (Example 1)
# T3 construct: also called deltaEGFR; rhEGFRvIII
# [12] = molecular target: T4, Cynomolgus EGFR extracellular domain (Cynomolgus monkey (Macaca fascicularis), UniProt P55245 25-645 (rhesus entry)); experiment: ELISA on cynomolgus EGFR ECD (Example 10)
# T4 construct: Cloned without signal peptide; also called Cynomolgus rEGFR ECD; Cynomolgus EGFR ECD
# How it was run: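 Wells coated overnight at 4 °C with 1 μg/ml EGFR protein, then given serial four-fold antibody dilutions from 1 μg/ml for 1 h at room temperature. Binding detected with streptavidin-HRP and TMB, read at OD 450 nm.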
% inhibition [1] [%],% inhibition [2] [%],% inhibition [3] [%],t1/2 [4] [min],% inhibition [5] [%],% inhibition [6] [%],% inhibition [7] [%],% inhibition [8] [%],% inhibition [9] [%],% inhibition [10] [%],binding result [11],binding result [12],Kd [4] [µM],koff [4] [s⁻¹],kon [4] [M⁻¹ s⁻¹],Binder
21,-3,78,0.2,98,77,-20,-21,-2,-9,,,,,,B1
,28,19,,,14,82,40,82,73,no binding,binds,,,,B2
48,6,9,4.1,50,-9,2,0,8,-2,,no binding,0.0242,0.0028,120000,B3
,,,22.9,,,,,,82,no binding,binds,0.0214,0.0005,24000,B4
71,12,3,2.4,78,75,11,11,18,-3,,,0.0267,0.0049,180000,B5
11,92,91,31.1,4,-1,12,-35,-20,-12,,binds,0.0292,0.00037,13000,B6
9,84,82,,,20,-21,-10,-3,5,,,,,,B7

# Reference: US20110135636A1 (SYMPHOGEN A S, published 2011)
